The DeepSol protein solubility set

Experiment: soluble on expression in E. coli; label from the status in PepcDB or PDB records

Sequence	soluble on expression in E. coli
GDQPVINFGIISTESSQNLKSIWEPFLKDMSQQTGYQVKAFFAPDYAGIIQGMRFDKVDIAWYGNKAAMEAVDRAHGEIFAQTVAASGAPGYWSLLIANKDSKIDSLEDMLANAKSLTFGNGDPNSTSGYLVPGYYVFAKNNVDPVKAFKRTLNSSHEVNALAVANKQVDVATFNTEGMERLELTQPEKARQLKVIWKSPLIPGDPLVWRNNLSDEQKNKLRDFFFKYGANAEQKKVLADLQWSKFQASDDDQLLPIRQLELFKQRTDVANNANLGAEEKAAKLKALDEELAKLEKRMAEREQKTAANAG	soluble
GDTKEQRILNHVLQHAEPGNAQSVLEAIDTYCEQKEWAMNVGDKKGKIVDAVIQEHQPSVLLELGAYCGYSAVRMARLLSPGARLITIEINPDCAAITQRMVDFAGMKDKVTLVVGASQDIIPQLKKKYDVDTLDMVFLDHWKDRYLPDTLLLEECGLLRKGTVLLADNVICPGAPDFLAHVRGSSCFECTHYQSFLEYREVVDGLEKAIYKGP	soluble
GEEGNSSELPLSAEDAKKLTELAENVLQGWDVQAEKIDVIQGNQMALVWKVHTDSGAVCLKRIHRPEKKALFSIFAQDYLAKKGMNVPGILPNKKGSLYSKHGSFLFVVYDWIEGRPFELTVKQDLEFIMKGLADFHTASVGYQPPNGVPIFTKLGRWPNHYTKRCKQMETWKLMAEAEKEDPFSQLYLQEIDGFIEDGLRIKDRLLQSTYVPWTEQLKKSPNLCHQDYGTGNTLLGENEQIWVIDLDTVSFDLPIRDLRKMIIPLLDTTGVWDDETFNVMLNAYESRAPLTEEQKQVMFIDMLFPYELYDVIREKYVRKSALPKEELESAFEYERIKANALRQLI	soluble
GEKGTTGTGNAALDNIFERKSVRTYLNKGVEKEKIDLMLRAGMSAPSGKDVRPWEFVVVSDRAKLDSMAAALPYAKMLTQARNAIIVCGDSARSFYWYLDCSAAAQNILLAAESMGLGAVWTAAYPYEDRMEVVRKYTHLPENILPLCVIPFGYPATKEQPKQKYDEKKIHYNQY	soluble
GEKTYVKRLVKILLLGAGESGKSTFLKQMRIIHGQDFDQRAREEFRPTIYSNVIKGMRVLVDAREKLHIPWGDNKNQLHGDKLMAFDTRAPMAAQGMVETRVFLQYLPAIRALWEDSGIQNAYDRRREFQLGESVKYFLDNLDKLGVPDYIPSQQDILLARRPTKGIHEYDFEIKNVPFKMVDVGGLRSERKRWFECFDSVTSILFLVSSSEFDQVLMEDRQTNRLTESLNIFETIVNNRVFSNVSIILFLNKTDLLEEKVQVVSIKDYFLEFEGDPHCLRDVQKFLVECFRGKRRDQQQRPLYHHFTTAINTENIRLVFRDVKDTILHDNLKQLMLQ	soluble
GGLTEICRKPVSPGCISSVSDWLISIGLPMYAGTLSTAGFSTLSQVPSLSHTCLQEAGITEERHIRKLLSAARLFKLPPGPEAM	soluble
GHHHHHHAIAENLYFQSEVSKANGTENNVEKFDAATQEATYLDEADVDAELEAMKKRLQEMEEEANRLKEVQEQSASEVPSSEEVDRRSVYVGNVDYGSTPEELQAHFKECGTINRVTILCDKFTGHPKGFAYIEFATEEGANNAVILNESLFRGRNLKVSIKRTNVPGISTTDRGRGRGFPRGIGFRGRGGLRGGFRGRGYHGFRGRGRMTPY	not soluble
GHMAAPILKDVVAYVEVWSSNGTENYSKTFTTQLVDMGAKVSKTFNKQVTHVIFKDGYQSTWDKAQKRGVKLVSVLWVEKCRTAGAHIDESLFPAANMNEHLS	soluble
GHMPPWTARQDSTTGLYAPVTPAGRVLLDRLAAHLPRIRSTAAEHDRDGTFPTDTFDALRKDGLMGATVPAELGGLGVDRLYDVAVALLAVARADASTALALHMQLSRGLTLGYEWRHGDERARTLAERILRGMVAGDAVVCSGIKDHHTAVTTLRPDGAGGWLLSGRKTLVSMAPVGTHFVINARTDGTDGPPRLASPVVTRDTPGFTVLDNWDGLGMRASGTVDIVFDDCPIPADHVLMRDPVGARNDAVLAGQTVSSVSVLGVYVGVAQAAYDTAVAALERRPEPPQAAALTLVAEIDSRLYALRATAGSALTAADALSADLSGDMDERGRQMMRHFQCAKLAVNRLAPEIVSDCLSLVGGASYTAGHPLARLLRDVQAGRFMQPYAYVDAVDFLSAQALGIERDNNYMSTWAKRSGGNGKSADAAGPRRPTPTSR	soluble
GHMSAHVQQDKYETNVSYKKLNQLAPYFKGFDGSFVLYNEREQAYSIYNEPESKQRYSPNSTYKIYLALMAFDQNLLSLNHTEQQWDKHQYPFKEWNQDQNLNSSMKYSVNWYYENLNKHLRQDEVKSYLDLIEYGNEEISGNENYWNESSLKISAIEQVNLLKNMKQHNMHFDNKAIEKVENSMTLKQKDTYKYVGKTGTGIVNHKEANGWFVGYVETKDNTYYFATHLKGEDNANGEKAQQISERILKEMELI	soluble
GHMYQHHNWQGALLDYPVSKVVCVGSNYAKHIKEMGSAVPEEPVLFIKPETALCDLRQPLAIPSDFGSVHHEVELAVLIGATLRQATEEHVRKAIAGYGVALDLTLRDVQGKMKKAGQPWEKAKAFDNSCPLSGFIPAAEFTGDPQNTTLSLSVNGEQRQQGTTADMIHKIVPLIAYMSKFFTLKAGDVVLTGTPDGVGPLQSGDELTVTFDGHSLTTRVLGS	soluble
GIDIDLQMLGERLLKNKIGSIVAIEPETGEILCMVSSPDFDPRLMIGRQRGKNHLMLQRDPMKPLLNRSIMGVYPPGSTFKTAQALTFLQEGIIQTNTPAFPCAHGFNYGSLHVGCHAHGSPLPLIPAIATSCNSYFCWGLFRMFGDRKYGSSQNAITVWKDHMVSQGFGYKLGVDLPGEKRGLIPNAQFYDKAYRGRWNGLTVISIAIGQGEILATPLQIANLGATIANRGHFITPHIVKEIQDEQLDSLYRVPRKTSIDRKHYEDVVTGMRAAVTGGTCRVAGAILPDVEVCGKTGTAQNRGHDHSVFMGFAPMNNPKIAIAVYVENGGFGAVYGVPIGALMMEQYLKGKLSPEN	not soluble
GIDPFTVRTRVSEGLVLAEPAKLMISTDGSASTADLTRATTTWNQQSNNLGASSKYVTSVLMDAGNTGVITITYVADQVGLPTAGNTLILSPYINDGNTRTALATAVAAGTRGTIDWACTSASNATATAQGFTGMAAGSVPQEFAPAQCR	soluble
GINDLDISPIDPQTGGSFDQQGVFVKGYAMLGVTGQKGIDGSPDLDGQDEGESGFYRTTFNCNELPTDECLWAWQKNQDIPQLTSISWSPSSQRTEWVYVRLGYDITQYNFFLDQTEGMTDAETLRQRAEIRFLRALHYWYFLDLFGKAPFKEHFSNDLPVEKKGTELYTYIQNELNEIEADMYEPRQAPFGRADKAANWLLRARLYLNAGVYTGQTDYAKAEEYASKVIGSAYKLCTNYSELFMADNDENENAMQEIILPIRQDGVKTRNYGGSTYLVCGTRVAGMPRMGTTNGWSCIFARAAMVQKFFSNLEDVPMLPADVEIPTKGLDTDEQIDAFDAEHGIRTEDMIKAAGDDRALLYSGVGGGRRKIQTDAISGFTDGLSIVKWQNYRSDGKPVSHATYPDTDIPLFRLAEAYLTRAEAIFRQGGDATGDINELRKRANCTRKVQTVTEQELIDEWAREFYLEGRRRSDLVRFGMFTTNKYLWDWKGGAMNGTSVASYYNKYPIPVSDINNNRNMSQNEGYK	soluble
GKDFTYNASLTFSHARNEIRNMDEPATKTAYRKQEGHPINQYFGLVCDGFVTQADLNNPDFPVSTFGNVQVGDLKYRDMNGDGFIDSRDETFIGYSDVPENTYALSLGCEYKGIGFSIMFQGVDHVSRYYDAEAMYAFVNGGKVKEHHLNRWNPNQSEAYNLTHASYPLLHYDSYGDHNQRKNSFFLKNGNFLRLKNIELSYSLPARWIRKVAMNECRVYVNANNLITWDKLDGLCDPESEGSNRYPIMKTVNFGVNIKF	not soluble
GKNLNWDFDANISFNRNKISGLPGDQFAQGWSKADNVFLQRNGMPIGTIYGFVEDGFYDNIAEVRADPFYAKESEAVCKAMVGEVKYKDFDGVAGITNADRQVIGDTNPDFTFGMTHNFTYKNFSLSFFLQGCVGGDIFNANLLEVTMSGIGNIPQNIYESRWTPENRENAKWPKAYAGYGRTMKLSDRYVEDGSYLRMKNINLGYKFISPFKGIESINLFASVSNVFTISGYSWYDPDVNSFGSDASRRGVDLFSYPSSRTFSFGLQCTF	not soluble
GKPDGKIDYADAVFKGCSDPGYLLGLNNTFRYKNFDLNVYFYGQLDLLKSGSYKDYWIVGSGTMTGVNNLYRGYNMPTSAKEVWSHDNTSGKMPGYFQYMSNYGYGDYFLEKSWFIRCRNITLGYTLPVKSAKKLVSNVRIYADVNNLFTITPYDGLDVETDDSYWAYPNVRSFSIGLDITF	not soluble
GKTVSVFGETCATPVGPAAGPHTQLAQNIVTSWLTGGRFIELKTVQILDRLELEKPCIDAEDECFNTEWSTEFTLLKAWDEYLKAWFALHLLEAMFQPSDSGKSFIFNMSVGYNLEGIKQPPMQQFIDNMMDASDHPKFAQYRDALNKLLQNEAFLARHGLQEKRESLQALPARIPTSMVQGVTLSTMHGCPPHEIEAICRYMLEEKGLNTFVKLNPTLLGYARVREILDVCGFGYIGLKEESFDHDLKLTQALEMLERLMALAKEKSLGFGVKLTNTLGTINNKGALPGEEMYMSGRALFPLSINVAAVLSRAFDGKLPISYSGG	not soluble
GLLDLKSMIEKVTGKNALTNYGFYGCYCGWGGRGTPKDGTDWCCWAHDHCYGRLEEKGCNIRTQSYKYRFAWGVVTCEPGPFCHVNLCACDRKLVYCLKRNLRSYNPQYQYFPNILCS	soluble
GLVLPHTEFQPAPKQDSSPHLTSQRPVDMVQLLKKYPIVWQGLLALKNDTAAVQLHFVSGNNVLAHRSLPLSEGGPPLRIAQRMRLEATQLEGVARRMTVETDYCLLLALPCGRDQEDVVSQTESLKAAFITYLQAKQAAGIINVPNPGSNQPAYVLQIFPPCEFSESHLSRLAPDLLASISNISPHLMIVIASV	soluble
GLVPRGSHMTGRMLTLDGNPAANWLNNARTKWSASRADVVLSYQQNNGGWPKNLDYNSVGNGGGGNESGTIDNGATITEMVFLAEVYKSGGNTKYRDAVRKAANFLVNSQYSTGALPQFYPLKGGYSDHATFNDNGMAYALTVLDFAANKRAPFDTDVFSDNDRTRFKTAVTKGTDYILKAQWKQNGVLTVWCAQHGALDYQPKKARAYELESLSGSESVGVLAFLMTQPQTAEIEQAVRAGVAWFNSPRTYLEGYTYDSSLAATNPIVPRAGSKMWYRFYDLNTNRGFFSDRDGSKFYDITQMSLERRTGYSWGGNYGTSIINFAQKVGYL	soluble
GMENIEYVFEDVVRIYDTDAQGIAHYAAYYRFFTNTIEKFIKEKVGIPYPIVNENLWFVIAESHAIYHRPVKLGDKLTVLLNPKILSNKTIKFEFKVLKDGELTTEGYVIQIAINPKIWKSTEMPKEIMDKLSIK	soluble
GMENIPFLRASTVPVIEYLDELKEIDASHIYTNYGPINQRFEQTIMSGFFQNRGAVTTVANATLGLMAAIQLKKRKKGKYALMPSFTFPATPLAAIWCGLEPYFIDISIDDWYMDKTVLWDKIEELKEEVAIVVPYATFGSWMNLEEYEELEKKGVPVVVDAAPGFGLMNGGMHYGQDFSGMIIYSFHATKPFGIGEGGLIYSKNEEDIQRIKRMGNFGFDTNRECTMMGFNCKMSEYAAAIGIATMKKWDDKLKERTRISEWYKQLLQSNGLMKKGWQLQKTEAVIQQFMPILCPEEVRNKQVIEDLKKQKIEARLYFSPSCHQQVLFRNYKSTDLTRTNKIAKRIVSLPLWEGMTKEIVEQIVICLGQKVVSADE	soluble
GMFAGSIPMYIRVVSITAQSKLQFDMTVTYFENVWSPKVISLGAISAEFVQSNENSGMYIIHYPDKQTAISVFDKIKPEVDEVRTQNRIQITEGKRLFRVD	soluble
